Measured values from paper PMC1978536, “MVB-12, a Fourth Subunit of Metazoan ESCRT-I, Functions in Receptor Downregulation” (PLoS ONE, 2007).

T1: TSG-101:6xHIS (recombinant C. elegans TSG-101) (C. elegans, UniProt O76258 1-425)
T1 construct: open reading frame amplified from N2 cDNA; source: E. coli BL21 (DE3), co-expressed from a polycistronic vector, purified (Ni-NTA, Superose 6); not shown: 6xHis, C-terminal, kept
T1 sequence (looked up): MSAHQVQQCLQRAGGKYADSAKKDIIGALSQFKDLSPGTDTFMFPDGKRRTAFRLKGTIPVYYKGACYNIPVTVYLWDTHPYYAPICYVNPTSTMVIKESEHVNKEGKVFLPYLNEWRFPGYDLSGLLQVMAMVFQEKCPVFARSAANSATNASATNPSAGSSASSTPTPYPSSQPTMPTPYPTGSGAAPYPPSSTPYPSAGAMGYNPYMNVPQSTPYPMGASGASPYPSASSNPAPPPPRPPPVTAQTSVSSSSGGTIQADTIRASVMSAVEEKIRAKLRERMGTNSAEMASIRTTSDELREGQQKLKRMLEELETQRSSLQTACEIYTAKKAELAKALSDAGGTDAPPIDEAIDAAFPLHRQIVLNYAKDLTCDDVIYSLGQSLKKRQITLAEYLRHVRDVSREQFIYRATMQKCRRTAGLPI


Legend:
[1] = biological target: TSG-101 (C. elegans, endogenous) (C. elegans (endogenous in embryos)); experiment: SEC + other: sucrose density gradient sedimentation; C. elegans embryo extracts desalted into 50 mM Na phosphate pH 7.0, 250 mM NaCl, 1 mM EDTA, 1 mM beta-mercaptoethanol; Superose 6 and 5-20% sucrose gradient; fractions blotted for TSG-101 and MVB-12
[2] = biological target: T1, TSG-101:6xHIS (recombinant C. elegans …); experiment: SEC + other: sucrose density gradient sedimentation; TSG-101:6xHIS, VPS-28 and VPS-37 co-expressed in E. coli, purified on nickel resin; Superose 6 in 50 mM Na phosphate pH 7.0, 250 mM NaCl, 1 mM EDTA, 1 mM beta-mercaptoethanol; 5-20% sucrose gradient; Stokes radius and S-value combined to a native molecular weight; conditions: both partners purified
[3] = biological target: T1, TSG-101:6xHIS (recombinant C. elegans …); experiment: SEC + other: sucrose density gradient sedimentation; TSG-101:6xHIS, VPS-28, VPS-37 and MVB-12 co-expressed in E. coli, purified on nickel resin; Superose 6 in 50 mM Na phosphate pH 7.0, 250 mM NaCl, 1 mM EDTA, 1 mM beta-mercaptoethanol; 5-20% sucrose gradient; Stokes radius and S-value combined to a native molecular weight; conditions: both partners purified

Molecule	stoichiometry N [2]	further results
MVB-12 (C. elegans, endogenous) (from UniProt Q17687 1-277) (natural protein)		stoichiometry N [1]: 1
VPS-28 (recombinant C. elegans) (natural protein, UniProt Q9NA26 1-210, looked up, VPS-28, C. elegans; open reading frame amplified from N2 cDNA) MSSQNANLMREVRLFENHSEREQMENLSELFAVLNALEHLEKMFSRDHVSADEYKSECFKLIDQYKVTMRLVHGATSIEDFAKKYRLHCPAAIERIREGRPITVKDDQGNVLKHIASIVEQFITFLDALRLNTRAVDDLYPGLDDLYNAINTTSRVPIDAIVTTKVKKWHDRLSSMAASDEISDEDARQMIFDVESAYQAFNKALNELKH	1	
MVB-12 (recombinant C. elegans) (natural protein, UniProt Q17687 1-277, looked up, MVB-12 (C06A6.3), C. elegans; open reading frame amplified from N2 cDNA; 277 amino acids as printed) MTELEFSADNAAPVIPITAICIVADKNKAPRGFLPIIKCQDDQTEADLWRDGFFTINRQVRYICTSTEIPDSNIKTPVQVITNLIIVRESDPIPHGYVAIDYTADSREKSLRKKYVCIRTEPRDRVVDAIGEIIILGKTKKVPRDYTSAGDIDSLLICYKVISIPQTYGIQTSNSTSNIESQAAGGLYPGLPNLSNSTPANLDVTGSSSNSAFTMKNAGAPRVKAIDGIDFKVNPMFVNSSGSNNSSQLPDLSQFNDLDRLDDKYNYSYATEHAVLS		stoichiometry N [3]: 1
VPS-37 (recombinant C. elegans) (natural protein, UniProt O44158 1-234, looked up, VPS-37 (CD4.4), C. elegans; open reading frame amplified from N2 cDNA) MFSQNPYESHVDVAVSAASANLRNMTNEQLISLLDDDALLESIIVNLPQVRSMPTDKESALAANKSLAEWNLAQKPRIDAAKTQTVDLYDQVKKLQGEVAVLKSQLDSVSSSKSLDTTSSLMQVAAQEADDDAEALFTQFENGEISVEIFLKQFKDKKTIAHLRKIKSDRLAALLREQTYSSYAQPTVPPPMPHAQPGYPTGNHMPGIGNIQFGSGYSGYPNISQPSAGRHPFF	1	
